Measured values from publication PMC6003631.

Key:
rat HA-μ receptor (rat) = rat HA-μ receptor (rat) (UniProt P33535)
[1] = biological target: human μ receptor-Rluc (human) (UniProt P35372)
UniProt P35372, sequence (P35372 whole entry): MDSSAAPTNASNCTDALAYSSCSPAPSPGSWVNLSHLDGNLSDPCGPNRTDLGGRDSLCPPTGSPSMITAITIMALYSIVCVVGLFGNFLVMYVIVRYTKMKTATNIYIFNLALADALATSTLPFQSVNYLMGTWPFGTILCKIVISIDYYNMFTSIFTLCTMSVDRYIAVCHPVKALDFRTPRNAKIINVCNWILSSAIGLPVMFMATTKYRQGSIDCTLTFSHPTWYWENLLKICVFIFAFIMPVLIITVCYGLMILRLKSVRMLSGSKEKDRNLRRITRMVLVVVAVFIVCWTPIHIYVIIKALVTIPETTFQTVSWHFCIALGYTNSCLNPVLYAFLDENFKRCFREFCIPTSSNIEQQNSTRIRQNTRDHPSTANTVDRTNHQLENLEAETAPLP

UniProt P33535, sequence (P33535 whole entry): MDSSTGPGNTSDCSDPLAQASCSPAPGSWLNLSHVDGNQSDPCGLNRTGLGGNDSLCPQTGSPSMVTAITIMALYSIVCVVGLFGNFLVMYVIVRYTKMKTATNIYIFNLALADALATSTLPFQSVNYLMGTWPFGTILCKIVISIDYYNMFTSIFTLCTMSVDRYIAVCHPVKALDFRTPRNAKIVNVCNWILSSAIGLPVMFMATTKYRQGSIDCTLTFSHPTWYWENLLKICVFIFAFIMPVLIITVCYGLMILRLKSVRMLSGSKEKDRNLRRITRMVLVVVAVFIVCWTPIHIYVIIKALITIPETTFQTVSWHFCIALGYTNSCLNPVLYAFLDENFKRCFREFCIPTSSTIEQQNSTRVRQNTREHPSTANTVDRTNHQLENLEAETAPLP

- Gi activation (decrease of the BRET signal between Gαi1-RlucII and GFP10-Gγ2) in HEK 293 cells expressing rat HA-μ receptors, EC50 (rat HA-μ receptor (rat)): 390 nM
- Gi activation (decrease of the BRET signal between Gαi1-RlucII and GFP10-Gγ2) in HEK 293 cells expressing rat HA-μ receptors, maximum response (BRET ratio) (rat HA-μ receptor (rat)): 12.4 BRET ratio
- arrestin-3 recruitment to the μ receptor (BRET between human μ receptor-Rluc and arrestin-3-GFP) in HEK 293 cells, EC50 [1]: 1.2 µM
Substance: D-Ala^2, N-MePhe^4, Gly-ol-enkephalin (peptide)
